Assay: soluble on expression in E. coli; label from the status in PepcDB or PDB records

Sequence | soluble on expression in E. coli
MGSDKIHHHHHHMAAGHGVRPARVAISLYPGCAQLYLQAQRAGKAVEALETPEAHFSVLESISLEEQMLILRSVLKRSQEQREKDFELMIQAYLSGNLDKVGALDSALGVDGLPAGLWEKIRVKLLDERNMRMAERIAAAASLQPVFVAVGAAHLPGEGGLIDLLSRAGLPYLPSIASDARRRLTFMPHLPLTHARYNSSYFRRMDGLTMADRINLRPLERNDLHFVHKLNNNDTIMRYWFEEPYEAYDELVALYDRHIHDQNERRFIIELDNGELAGLVELVEINYIHRRAEFQIIIAPDYQGRGLAKSATRIAVGYAFRVLNLHKVYLVVDKENQAAIHVYEACGFEVEGRLKEEFFSNGSYRDVLRMRLLQDDYLRHVGPAPVDASVLREWQDQ | not soluble
MSLNDKVTAVRDVWRYEQGEISKVEDRMVTEFPLTVILNGSEFVTLVCTPEHIEELVIGFLASEGVIRFQKEIKRFTIDESLGFVYVDLVHPETLDQKDYTKRVIGSCCGKGRHFYFQQDVKTAKTAVSQIKISPEACLALMKDMQQGSGTFQDTGGVHNAALCDTEKLLLMRTDIGRHNALDKLYGHCLLNGMSVRDKLIVFSGRISSEVLLKAAKIGVSIVISKSAPTELAIQMAEELNITAIGFVRNGSFNVYTHPERIREEGHHHHHH | soluble
MKRKVQVKNITIGEGRPKICVPIIGKNKKDIIKEAKELKDACLDIIEWRVDFFENVENIKEVKEVLYELRSYIHDIPLLFTFRSVVEGGEKLISRDYYTTLNKEISNTGLVDLIDVELFMGDEVIDEVVNFAHKKEVKVIISNHDFNKTPKKEEIVSRLCRMQELGADLPKIAVMPQNEKDVLVLLEATNEMFKIYADRPIITMSMSGMGVISRLCGEIFGSALTFGAAKSVSAPGQISFKELNSVLNLLHKSIN | not soluble
MLVLGGISLFLFMVKQNEKAMLNQEKERAAVVLADNETRVLFFYKDTCADCQKVYPTVYEEDQGENNIVFINLNQPKNRHYIKTYTLEKVPTFVTPKRRYVGTDTRKIQQLIAENNDERSEDLEHHHHHH | not soluble
MGSDKIHHHHHHMNKPCIISVAITGSLPRKKDNPAVPITVSEQVESTQAAFEAGATLVHLHVRNDDETPTSNPDRFALVLEGIRKHAPGMITQVSTGGRSGAGNERGAMLSLRPDMASLATGSVNFPTRVYDNPPELVDWLAAEMKTYGIKPEVEAFDLSMIFQAAAMQAAGAIVGPLHIQFVMGIKNAMPVDREVLEFYVQTLKRLSPDATWTGAGIGRHQLTMARWSLELGGHCRTGLEDNVRLDKNTLAPSNAALVRQVAELCEEYGRPVATAAQAREIMSLG | not soluble
MAVSLPTKYPLRPITNIPKSHRPSLLRVRVTCSVTTTKPQPNREKLLVEQRTVNLPLSNDQSLQSTKPRPNREKLVVEQRLASPPLSNDPTLKSTWTHRLWVAAGCTTLFVSLAKSVIGGFDSHLCLEPALAGYAGYILADLGSGVYHWAIDNYGDESTPVVGTQIEAFQGHHKWPWTITRRQFANNLHALAQVITFTVLPLDLAFNDPVFHGFVCTFAFCILFSQQFHAWAHGTKSKLPPLVVALQDMGLLVSRRQHAEHHRAPYNNNYCIVSGAWNNVLDESKVFEALEMVFYFQLGVRPRSWSEPNSDWIEETEISNNQA | soluble
MSLLRLTSVVGIGHAEDPNPRFRKQMEDVCVMIDKLGNSHSTGFFAIYDGHGGQEAARIAGDNLHRYLLEDLLNQKLEHLLEADPLANQSMSQPTCSQAGSKLSSDGHNLSGNPSGVPKDSQLTNATMSSGVRTGTFSKDKISPSAKVRVPVPPNEPSKLGAIIRKAIQRTDDVLRQKNVLYVGCTALIALVTKYTIEFASVGDSRAVISINGTAYRCTEDHKASDKLEIDRIKSLGGTVIFGRVNGFISVSRALGDHCIKNLVTCDPFLRSYPRYPTPDSVGVTASSTNELDEFIIMACDGVWDVVTDQQSVDTVRKCLKETGSPQKAAFELKNLAIRSGTQDNVSVLVLLLREINKWEGHHHHHH | soluble
MAHHHHHHMLQWEWPTSLCAERRELIRAAVERAIRNSMAEGSDGQIRGTVNVDELNLGSNPPEVTLSGIRMLSAERTVIMVKVRYTGDFFIRLSGLEVNLDMVGSGAEEADNNFALPFFCPFEMTLRDILIDGMVAIEILQELEENVQWGKCADVPVAPLATTVRSRKNTNGMRPPCRAGTPSTRHRSGYGVLLGGGGRGAMRLPGVLDSIDGSLSSVDMEGASEGHPRHSLRVRNVSPPFFDILSTKVLVKQRVVKMQLFGDPLKSFRVLSNFGSVQGADCKAEQTIRKLIKPAIEQLIEEGIIFNI | not soluble
MSLKSELPPVQVALDLVDLPRAIEIAKEAVAGGVTWVEAGTPLIKSEGMNAIRELRKNFPTLTIVADMKTMDAGSTEVEMAAKAGANVILILGVGPDSMIIDAVKAGKKYGVLVGTDLIATEDPIKRAVELEEMGVDIINIHVGLDQQVLNVDPVELVKRVSENCKKAKIAAAGGLNSETAVKAYEAGADIIIAGGTLYKSADPEQTARDIIKGLKTGKPVKTDKFKKFNESELVSAFNVVSTSNISDAMHRTGEMKGLKPVWNSEKPLKFAGPAVTVRTYSGDWSKPVSAIDDCEAGNVLVIDNCSSEIACWGGLATLSCETKGVVAIVIDGAVRDVEEILKIGIPVFARSITPTAGEPKGFGEINAVIDCAGRTVEPGDWIVGDENGIIVVPKNEAMEIANRAIDVKEREDRVKEEITRGTTLAKTIRLKDWELKEGHHHHHH | soluble
LRLWALTATECRLLLSTRWNVGRLYQLPVAASAEFASYQTQRDQLRQTFKNIASEILNPDDPRTDLPFHIALSVIEMRSNDGVVPEPLRDDE | not soluble
TSLFAQEIRLSKRHEEIVSQRLMLLQQMENKLGDQHTEKASQLQTVETAFKRNLSLLKDIEAAEKSLQTRIHPLPRPEVVSLETRYWASV | soluble
MISIKVLFFGEACQLVGKREEAIDFPEETDYEEIRKTILENYPALQKIEKVMMLAVDQEYANPGDRFELVRFTEIAVIPPLSGG | soluble
APIKVGINGFGRIGRMVFQAICDQGLIGTEIDVVAVVDMSTNAEYFAYQMKHDTVHGRPKYTVEAVKSSPSVETADVLVVNGHRIKCVKAQRNPADLPWGKLGVDYVIESTGLFTDKLKAEGHIKGGAKKVVISAPASGGAKTIVMGVNQHEYSPASHHVVSNASCTTNCLAPIVHVLTKENFGIETGLMTTIHSYTATQKTVDGVSLKDWRGGRAAAVNIIPSTTGAAKAVGMVIPSTKGKLTGMSFRVPTPDVSVVDLTFRATRDTSIQEIDKAIKKAAQTYMKGILGFTDEELVSADFINDNRSSVYDSKATLQNNLPGEKRFFKVVSWYDNEWAYSHRVVDLVRYMAAKDAASSKM | soluble
KTEIHGDSTKATLEEGQQLTLTFISTKLDVAVGSCHSLVANFLDGFLKFQTGSNSAFDVVEVEEPAGPAVLTIGLGHKGRLAVVLDYTRLNAALGSAAYVVEDSGCSSSEEVSFQGVGSGATLVVTTLGESPTAVSA | soluble
MLIYEGHIDKLIRRGQEKGLDIYNLIRTAVFNPVEHYGLNVGLLREGDPADFIIVDNLKSFNILSTFIDGECVYENGKVLFPLEHHHHHH | not soluble
SSGRSVRAETRSRAKDDIKKVMAATERVRRWEKKWVTVGDTSLRIFKWVPVTETKQIYKPKGAGPAVRELKGFPTDVVLENARSVLLDFQDDNSNQSFLSDAYQSNTKVDSSSNSSPQHVSEAVSPSHPPYYRTEDSQPPTLGQESMEAEREASTTSSEVTDEPPTLIKEDVLSLSTQEEEEAIGAPPLKRVCTEHNSTVS | soluble
MGSDKIHHHHHHVAKQKFKITNWPTYNKALINRGSITFWLDDEAIQAWYESATPSSRGRPQRYSDLAITTVLVIKRVFRLTLRAAQGFIDSIFTLMNVPLRCPDYTSVSRRAKSVNVSFKTFTRGEIAHLVIDSTGLKVFGEGEWKVKKHGQERRRIWRKLHLAVDSNTHEIICADLSLNNVTDSEAFPGLIRQTHRKIRAAAADGAYDTRLCHDELRRKKISALIPPRKGAGYWPGEYADRNRAVANQRMTGSNARWKWTTDYNRRSIAETAMYRVKQLFGGSLTLRDYDGQVAEAMALVRALNKMTKAGMPESVRIA | not soluble
MENLKKYLEVAKIAALAGGQVLKENFGKVKKENIEEKGEKDFVSYVDKTSEERIKEVILKFFPDHEVVGEEMGAEGSGSEYRWFIDPLDGTKNYINGFPIFAVSVGLVKGEEPIVGAVYLPYFDKLYWGAKGLGAYVNGKRIKVKDNESLKHAGVVYGFPSRSRRDISIYLNIFKDVFYEVGSMRRPGAAAVDLCMVAEGIFDGMMEFEMKPWDITAGLVILKEAGGVYTLVGEPFGVSDIIAGNKALHDFILQVAKKYMEVAV | soluble
MGSDKIHHHHHHMSELPNSHATTLLAAPDTEIDVRETFGIDIDMKVPAFSRADERVPDRDDTYVFDPDTTLAILAGFAYNRRVMVQGYHGTGKSTHIEQVAARLNWPCIRINLDAHISRIDLVGRDAIVLRDGLQVTEFREGLLPWALQTPTALVFDEYDAGRPDVMFVIQRVLETEGKLTLLDQNRVIRPNKFFRLFATANTVGLGDTSGLYHGTQAINQGQMDRWNLVVALNYLPEATEVEIVTKKVPDLDPKIVTDMVRVANLTRQGFINGDISTVMSPRTVISWAQNSQIFNDVGFAFRLSFLNKCDETERVLVAEYYQRVFGKDLPESVAHRG | not soluble
MNVMQENQIKLIEHIKQAVVQAVGLEETEVPEILLEVPKDKKHGDYSTNIAMQLARVAKKAPRQIAESIVPELKKDTKLIKEVEIAGPGFINFYLDNAYLTDLVPVILTEDKKYG | not soluble
MSSLLTIALAVTISCVNTVEDQYFGGQNAEPVAKVEQKATSNNTLADLEKDPLYPYIDKQNKLVEKNGIQYIENEENILVLANKDYSLQPTYTPPDLVRPNVTFSFGNEQVEKAQLRKEAGTALEEMFKAANQDGKKLFAVSGYRSYKRQQEVFQAEVNSKGDKKAREAVAYPGTSEHQTGLAMDISSENQSYELTEAFGTTPEGKWLEENAHNYGFILRYMKGREDITKYQYESWHYRYVGKDAATIIYKNNWTLEEFFEHVKALQKKVDAAK | not soluble
GPGSMAVQPGKVLAEQFSRQGIQYEESTDVLWCSLCTKADSLEIISRATVEDVLEHCRLRQHLLLMEKETVKEHYCPVEINGRSFLLDHNCVYPSTMFGKGRMLLDDTLGCVMTEDVCGGVKLLPRHKYTVVEIVIPPAGTPIPKDPSYYVERPVRSRKCHEKFDSWIQVHNSSVEGESALMKRRRIAFSQLNM | not soluble
MKHSLPDLPYDYGALEPHINAQIMQLHHSKVHAAYVNNLNVTEEKYQEALAKGDVTAQIALQPALKFNGGGHINHSIFWTNLSPNGGGEPKGELLEAIKRDFGSFDKFKEKLTAASVGVQGSGWGWLGFNKERGHLQIAACPNQDPLQGTTGLIPLLGIDVWEHAYYLQYKNVRPDYLKAIWNVINWENVTERYMACKK | soluble
MKFFVFALILALMLSMTGADSHAKRHHGYKRKFHEKHHSHRGYRSNYLYDNLEHHHHHH | not soluble
SMANHLVKPDSRNCKRARELEPQVSDSPQVSSLGKSESSLSEASGLFYKEEALEKDLSDMSKEINLMLSTYAKILSERAAVDASYIDEIDGLFKEANIIENFLVQKREFLKQRFTVITNTLHK | soluble
DCYCRIPACIAGEKKYGTCIYQGKLWAFCC | soluble
MTLISPELKTQGFYASSYKGTDLIGLTKHYFREKHMKQLMLTLGIVNTYDKIKVLDAHYRAIARAAPICHAFGFHLALYDFPFKMTAEELVAFVMEKTTIGESGSYLKILYEKNHLSVSDLPKKGFPSQFGETVITTSKPDPKRKVMPVKIAEEALHNRSFLFLVGLGHKGLPKELFERGKYHLDITSKGLSLETCTAIGAVPAHLAGLMENLRCKK | not soluble
GHMSGFKHVSHVGWDPQNGFDVNNLDPDLRSLFSRAGISEAQLTDAETSKLIYDFIEDQGGLEAVRQEMRRQ | soluble
